Experimental findings from patent publication US20260265403A1 are described below.

In general, EC50 refers to the concentration needed to bring the measured effect to its halfway point. By EC50 (read off the curve) is commonly meant the concentration at which the effect is half-maximal. Low readings indicate higher potency in that assay, high ones lower potency in that assay. As a reminder, the Kd is a measure of binding affinity in units of concentration. A high value points to a looser complex. One may read the koff as a measure of how fast the partners let go of each other. By kon is commonly meant the second-order rate constant of association.

The target of assay [1] is human CD24 on cells (human) (UniProt P25063). In words: flow cytometry (GMFI), MCF-7 cells; EC50 table under the graphs.
Chain of human CD24 on cells (human) (P25063 27-59): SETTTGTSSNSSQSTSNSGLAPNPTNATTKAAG
The target is the same in assay [2]. The experiment in a line: flow cytometry (GMFI), SKOV3 cells; EC50 table under the graphs [Cont'd) B].
The target is the same in assay [3]. In words: flow cytometry (GMFI), A549 cells.
Assay [4] has the same target. The experiment in a line: flow cytometry (GMFI), MCF-7 cells.
The target is the same in assay [5]. In words: flow cytometry (GMFI), NALM6 cells. For orientation: In flow cytometry, cells or beads pass a laser one at a time.
The target in assay [6] is CD24-his protein (human) (UniProt P25063). In words: ELISA, CD24-his(HEK 293) [Cont'd) B].
Chain of CD24-his protein (human) (P25063 27-59 limits assumed): as the sequence (P25063 27-59) above
Assay [7] deals with human CD24 on cells (human) (UniProt P25063). The experiment in a line: flow cytometry (GMFI), OVCAR3 cells.
The target of assay [8] is CD24-his-GST(Ecoli). The experiment in a line: ELISA, CD24-his-GST(Ecoli) [Cont'd) B]. In general terms: An ELISA detects its analyte on a solid surface through an enzyme-linked reagent.
Chain of CD24-his-GST(Ecoli) (chain, as listed by the source limits assumed): as the sequence (P25063 27-59) above
The target of assay [9] is human CD24 on cells (human) (UniProt P25063). In words: flow cytometry (GMFI), MCF-7 cells [Cont'd) C].
Assay [10] has the same target. The experiment in a line: flow cytometry (GMFI), MC38-hCD24 cells [Cont'd) C].
In assay [11] the target is Human CD24 (human) (UniProt P25063). The experiment in a line: Biacore (SPR); antibody as ligand, human CD24 as analyte.
Chain of Human CD24 (human) (P25063 27-59 limits assumed): as the sequence (P25063 27-59) above
For assay [12], the target named is CD24-his protein (human) (UniProt P25063). The experiment in a line: ELISA, CD24-his (HEK 293), unit taken from the concentration axis.
Assay [13] has the same target. The experiment in a line: Siglec10-PE competition assay (gMFI on the sheet); legend: Siglec-10-his-Biotin mixed with the antibody, plate coated with CD24 protein.
Assay [14] deals with human CD24 on cells (human) (UniProt P25063).
The target is the same in assay [15]. The experiment in a line: flow cytometry (MFI), MCF-7 cells [Cont'd) B].
For assay [16] the target is unchanged. In words: flow cytometry (MFI), NALM6 cells [Cont'd) B].
Assay [17] shares this target. The experiment in a line: cell-based or functional assay.

As for human isotype IgG4 (antibody), the concentration giving a half-maximal response (EC50) turned out to be 12.9 µg/mL in assay [1] and 3.48 µg/mL in [2].
Take GB7011 (antibody): the EC50 (read off the curve) stood at 0.3 µg/mL in assay [3]; 0.3 µg/mL in assay [4]; 0.6 µg/mL in [5]; 0.02 µg/mL in [6]; 0.7 µg/mL in assay [7]; 0.02 µg/mL in [8]. In addition, the EC50 (read off the curve) is 0.4 µg/mL in [9] and 0.3 µg/mL in assay [10]. Also, the Kd in assay [11] was 12.4 nM. In assay [11], this substance gave a koff of 0.0104 s⁻¹. This substance also registered a kon in assay [11] of 839000 M⁻¹ s⁻¹. The substance also returned an EC50 in assay [12] of 0.0202 µg/mL. Further, the IC50 (read off the curve) in assay [13] was determined as 2 µg/mL.
In [14], anti-CD24 ab(SN3) (antibody) showed an EC50 (read off the curve), phagocytosis of NALM6 cells of 0.3 µg/mL. The substance further registered an EC50 (read off the curve), phagocytosis of OVCAR3 cells in assay [14] of 0.7 µg/mL. Besides, the EC50 (read off the curve) worked out at 0.1 µg/mL in assay [15] and 0.09 µg/mL in assay [16].
In the case of NS-17(SWA11) (antibody), in assay [17], the EC50 of Phagocytosis assay, IgG1, Kappa; MCF-7 is 0.02 µg/mL; the EC50 of Phagocytosis assay, IgG1, Kappa; NALM6 was 1.01 µg/mL; the EC50 of Phagocytosis assay, IgG1, Kappa; OVCAR3 is 0.91 µg/mL; the EC50 of Phagocytosis assay, IgG4, Kappa; MCF-7 was 0.09 µg/mL. In assay [17], the EC50 of Phagocytosis assay, IgG4, Kappa; NALM6 amounted to 0.18 µg/mL.
Regarding IMM47H (antibody), the EC50 (read off the curve) in assay [3] is 0.3 µg/mL; in assay [4] it was 0.5 µg/mL; in [5], 0.3 µg/mL; in assay [6], 0.03 µg/mL; in [7], 0.4 µg/mL; in assay [9], 0.3 µg/mL. Also, the Kd in [11] came out at 165 nM. The EC50 in assay [1] was found to be 0.53 µg/mL; in [2], 0.38 µg/mL; in assay [12] it was 0.0277 µg/mL.
